Test results taken from the Human Domainome abundance scans (Beltran et al. 2025).
± gives the uncertainty stated by the source.

B1: Endonuclease CUE2, residues 9 to 47; numbered along this chain, P36075 (parent)
chain: HESKLSILMDMFPAISKSKLQVHLLENNNDLDLTIGLLL

Variants of: B1
Assay: abundance fitness (aPCA) (normalised: wild type 0, dead -1); higher = more abundant; growth selection in yeast, the domain comes from the species named
Settings: Saccharomyces cerevisiae (strain ATCC 204508 / S288c)

Row | Variant | abundance fitness
1 | HESKLSILMDMFKAISKSKLQVHLLENNNDLDLTIGLLL [P13K] | -0.781 ± 0.16
2 | HESKLSILMDMFQAISKSKLQVHLLENNNDLDLTIGLLL [P13Q] | -0.752 ± 0.13
3 | HESKLSILMDMFDAISKSKLQVHLLENNNDLDLTIGLLL [P13D] | -0.898 ± 0.18
4 | HESKLSILMDMFMAISKSKLQVHLLENNNDLDLTIGLLL [P13M] | -0.72 ± 0.16
5 | HESKLSILMDMFCAISKSKLQVHLLENNNDLDLTIGLLL [P13C] | -0.67 ± 0.18
6 | HESKLSILMDMFIAISKSKLQVHLLENNNDLDLTIGLLL [P13I] | -0.804 ± 0.17
7 | HESKLSILMDMFEAISKSKLQVHLLENNNDLDLTIGLLL [P13E] | -0.349 ± 0.083
8 | HESKLSILMDMFGAISKSKLQVHLLENNNDLDLTIGLLL [P13G] | -0.834 ± 0.07
9 | HESKLSILMDMFPAILKSKLQVHLLENNNDLDLTIGLLL [S16L] | -0.37 ± 0.046
10 | HESKLSILMDMFPAIEKSKLQVHLLENNNDLDLTIGLLL [S16E] | -0.09 ± 0.042
11 | HESKLSILMDMFPAIKKSKLQVHLLENNNDLDLTIGLLL [S16K] | -0.114 ± 0.055
12 | HESKLSILMDMFPAIVKSKLQVHLLENNNDLDLTIGLLL [S16V] | -0.29 ± 0.048
13 | HESKLSILMDMFPAIHKSKLQVHLLENNNDLDLTIGLLL [S16H] | 0.384 ± 0.22
14 | HESKLSILMDMFPAIRKSKLQVHLLENNNDLDLTIGLLL [S16R] | -0.15 ± 0.032
15 | HESKLSILMDMFPAIPKSKLQVHLLENNNDLDLTIGLLL [S16P] | 0.025 ± 0.051
16 | HESKLSILMDMFPAIWKSKLQVHLLENNNDLDLTIGLLL [S16W] | -0.654 ± 0.11
17 | HESKLSILMDMFPAITKSKLQVHLLENNNDLDLTIGLLL [S16T] | -0.179 ± 0.074
18 | HESKLSILMDMFPAIQKSKLQVHLLENNNDLDLTIGLLL [S16Q] | -0.057 ± 0.06
19 | HESKLSILMDMFPAIGKSKLQVHLLENNNDLDLTIGLLL [S16G] | -0.167 ± 0.032
20 | HESKLSILMDMFPAICKSKLQVHLLENNNDLDLTIGLLL [S16C] | -0.133 ± 0.14
21 | HESKLSILMDMFPAIAKSKLQVHLLENNNDLDLTIGLLL [S16A] | -0.026 ± 0.043
22 | HESKLSILMDMFPAIDKSKLQVHLLENNNDLDLTIGLLL [S16D] | -0.048 ± 0.068

Row | Variant | abundance fitness
23 | HESKLSILMDMFPAIMKSKLQVHLLENNNDLDLTIGLLL [S16M] | -0.395 ± 0.055
24 | HESKLSILMDMFPAIFKSKLQVHLLENNNDLDLTIGLLL [S16F] | -0.045 ± 0.1
25 | HESKLSILMDMFPAINKSKLQVHLLENNNDLDLTIGLLL [S16N] | -0.171 ± 0.074
26 | HESKLSILMDMGPAISKSKLQVHLLENNNDLDLTIGLLL [F12G] | -0.905 ± 0.15
27 | HESKLSILMDMVPAISKSKLQVHLLENNNDLDLTIGLLL [F12V] | -0.9 ± 0.1
28 | HESKLSILMDMEPAISKSKLQVHLLENNNDLDLTIGLLL [F12E] | -0.884 ± 0.12
29 | HESKLSILMDMLPAISKSKLQVHLLENNNDLDLTIGLLL [F12L] | -0.644 ± 0.075
30 | HESKLSILMDMWPAISKSKLQVHLLENNNDLDLTIGLLL [F12W] | -0.596 ± 0.097
31 | HESKLSILMDMKPAISKSKLQVHLLENNNDLDLTIGLLL [F12K] | -0.966 ± 0.2
32 | HESKLSILMDMRPAISKSKLQVHLLENNNDLDLTIGLLL [F12R] | -0.865 ± 0.11
33 | HESKLSILMDMPPAISKSKLQVHLLENNNDLDLTIGLLL [F12P] | -0.611 ± 0.39
34 | HESKLSILMDMMPAISKSKLQVHLLENNNDLDLTIGLLL [F12M] | -0.548 ± 0.19
35 | HESKLSILMDMTPAISKSKLQVHLLENNNDLDLTIGLLL [F12T] | -0.446 ± 0.12
36 | HESKLSILMDMSPAISKSKLQVHLLENNNDLDLTIGLLL [F12S] | -0.808 ± 0.12
37 | HESKLSILMDMDPAISKSKLQVHLLENNNDLDLTIGLLL [F12D] | -1.07 ± 0.28
38 | HESKLSILMDMFPAISKRKLQVHLLENNNDLDLTIGLLL [S18R] | -0.038 ± 0.033
39 | HESKLSILMDMFPAISKDKLQVHLLENNNDLDLTIGLLL [S18D] | -0.164 ± 0.15
40 | HESKLSILMDMFPAISKMKLQVHLLENNNDLDLTIGLLL [S18M] | -0.11 ± 0.057
41 | HESKLSILMDMFPAISKAKLQVHLLENNNDLDLTIGLLL [S18A] | -0.063 ± 0.036
42 | HESKLSILMDMFPAISKFKLQVHLLENNNDLDLTIGLLL [S18F] | 0.056 ± 0.094
43 | HESKLSILMDMFPAISKQKLQVHLLENNNDLDLTIGLLL [S18Q] | 0.082 ± 0.099
44 | HESKLSILMDMFPAISKLKLQVHLLENNNDLDLTIGLLL [S18L] | -0.103 ± 0.048

Row | Variant | abundance fitness
45 | HESKLSILMDMFPAISKKKLQVHLLENNNDLDLTIGLLL [S18K] | -0.03 ± 0.077
46 | HESKLSILMDMFPAISKTKLQVHLLENNNDLDLTIGLLL [S18T] | 0.015 ± 0.046
47 | HESKLSILMDMFPAISKVKLQVHLLENNNDLDLTIGLLL [S18V] | 0.154 ± 0.036
48 | HESKLSILMDMFPAISKPKLQVHLLENNNDLDLTIGLLL [S18P] | -0.214 ± 0.075
49 | HESKLSILMDMFPAISKWKLQVHLLENNNDLDLTIGLLL [S18W] | -0.178 ± 0.044
50 | HESKLSILMDMFPAQSKSKLQVHLLENNNDLDLTIGLLL [I15Q] | -0.081 ± 0.048
51 | HESKLSILMDMFPARSKSKLQVHLLENNNDLDLTIGLLL [I15R] | -0.343 ± 0.043
52 | HESKLSILMDMFPAPSKSKLQVHLLENNNDLDLTIGLLL [I15P] | -1 ± 0.2
53 | HESKLSILMDMFPAESKSKLQVHLLENNNDLDLTIGLLL [I15E] | -0.017 ± 0.042
54 | HESKLSILMDMFPAWSKSKLQVHLLENNNDLDLTIGLLL [I15W] | -0.023 ± 0.038
55 | HESKLSILMDMFPAMSKSKLQVHLLENNNDLDLTIGLLL [I15M] | -0.078 ± 0.055
56 | HESKLSILMDMFPATSKSKLQVHLLENNNDLDLTIGLLL [I15T] | -0.115 ± 0.25
57 | HESKLSILMDMFPAVSKSKLQVHLLENNNDLDLTIGLLL [I15V] | -0.115 ± 0.048
58 | HESKLSILMDMFPADSKSKLQVHLLENNNDLDLTIGLLL [I15D] | -0.293 ± 0.11
59 | HESKLSILMDMFPAKSKSKLQVHLLENNNDLDLTIGLLL [I15K] | -0.142 ± 0.054
60 | HESKLSILMDMFPAHSKSKLQVHLLENNNDLDLTIGLLL [I15H] | 0.022 ± 0.062
61 | HESKLSILMDMFPAGSKSKLQVHLLENNNDLDLTIGLLL [I15G] | -0.735 ± 0.055
62 | HESKLSILMDMFPASSKSKLQVHLLENNNDLDLTIGLLL [I15S] | -0.214 ± 0.057
63 | HESKLSILMDMFPAFSKSKLQVHLLENNNDLDLTIGLLL [I15F] | 0.163 ± 0.18
64 | HESKLSILMDMFPALSKSKLQVHLLENNNDLDLTIGLLL [I15L] | -0.08 ± 0.063
